Source: patent publication US8535662B2, “Apyrase therapy for bleeding conditions” (Apt Therapeutics, Inc., priority 2010, dated 2013)
Marks after values point to notes of the source that are not given here.

Assays:
[1] = test system: rats, embolic stroke (thrombus injection into internal carotid artery); assay: Embolic stroke model in rats, apyrase agent with or without r-tPA (Example 1); assay type: in vivo, rat; details: brains at 3 days
Method: The following groups were included in this study:
(1) control (saline treated), n=11;
(2) apyrase agent at 0.75 mg/kg, n=4;
(3) apyrase agent at 2.25 mg/kg, n=4;
(4) r-tPA (at 10 mg/kg), n=4;
(5) apyrase agent at 0.75 mg/kg plus r-tPA (10 mg/kg) and
(6) apyrase agent at 2.25 mg/kg plus r-tPA (10 mg/kg) (n=10).
All the treatments were initiated at 2 h following thrombus injection into internal carotid artery. Infarct volume and behavioral deficit were determined at day 3 after the stroke.

[2] = test system: rats, thromboembolic stroke (MCA occlusion); assay: Rat model of thromboembolic stroke (MCA occlusion by preformed clot), apyrase agent plus aspirin (Example 2); assay type: in vivo; details: for Neurological deficits, median (interquartile range 25th to 75th), modified Bederson score: n = 10
Method: In this study, four experimental groups were included (n=10):
(1) control, saline injected gastrically;
(2) aspirin, 1.25 mg/kg (equivalent to 100 mg/day dose in human) injected gastrically once a day, starting 3 days prior to middle cerebral artery (MCA) occlusion and also MCA occlusion until the end of each experiment;
(3) apyrase, dose at 0.75 mg/kg injected IV at 2 h after MCA occlusion;
(4) combination group, aspirin and apyrase agent.
In this clinically relevant embolic model, ischemic brain injury was induced by embolizing preformed clots into the middle cerebral artery (MCA). Ten microliters of blood were withdrawn into a catheter and retained for 15 min to allow formation of a clot. Once the clot was formed, the catheter was advanced 17 mm in the ICA until its tip was 1-2 mm away from the origin of the MCA. The preformed clot in the catheter was then injected, and the catheter was removed. […]
Infarct was measured in the brain section stained with 2,3,5-triphenyltetrazolium chloride (TTC) solution. The infarct volume was expressed as a percentage of the total volume from the ipsilateral hemisphere.
Brain swelling (edema) was determined using a formula: edema=(the volume of the right hemisphere—the volume of the left hemisphere)/the volume of the left hemisphere.
Neurological deficits were determined using a modified Bederson's scoring system as following: 0: no observable deficit; 1: forelimb flexion; 2: forelimb flexion plus decreased resistance to lateral push; 3: unidirectional circling; 4: unidirectional circling plus decreased level of consciousness.
Hemorrhagic transformation was quantified by detection of extracellular hemoglobin content in brain homogenates using Drabkin's reagents.

[3] = test system: rats, MCAO suture model with hyperglycemia; assay: Hyperglycemic hemorrhagic transformation in rat focal ischemia (MCAO suture model) (Example 3); assay type: in vivo
Method: Focal ischemia was produced using the MCAO (Middle Cerebral Artery Occlusion) suture model in rats. Removal of the suture at 3.5 h after MCAO signaled the beginning of the reperfusion period. Ischemia-reperfusion causes blood extravasation into infracted brain tissues, showing multiple dots, small petechiae and more confluent petechial hemorrhage.
The animals were divided into three groups: […]
Rats were sacrificed at 8 h after MCAO and brains were frozen and cut into 20 μm frozen sections with intervals at 1 mm. The sections were stained with hematoxylin-eosin (HE) or cresyl violet. The H-E staining was used for measurements of hemorrhage rate and hemorrhage volume. The cresyl violet staining was used for quantifying infarct volume and brain swelling. An MCID™ digital image analysis system (Imaging Research, Inc, St. Catherines, Ontario, Canada) was used for quantifying hemorrhage and infarct volume.

[4] = Pharmacokinetic study in rabbits, single IV bolus (serum ADPase and ATPase activities); assay type: in vivo, rabbit
Method: Pharmacokinetic studies of apyrase agent (sol CD39L3 R67G T69R) were conducted in rabbits where a single bolus was injected intravenously. At various time points (10 min to 24 h after injection), rabbits were bled by cardiac puncture and serum was prepared. Serum samples were examined for both ADPase and ATPase activities.

[5] = test system: ADP-induced platelet aggregation; assay: Ex vivo ADP-induced platelet aggregation in platelet-rich plasma after dosing rabbits; set-up: species or system rabbit
Source text: Blood samples taken at various time points were heparinized.
Data are presented as relative light transmission versus time.

[6] = test system: ADP-induced platelet aggregation; assay: Ex vivo ADP-induced platelet aggregation in platelet-rich plasma in pigs (Example 5); set-up: species or system pig
[7] = test system: dogs, coronary thrombotic occlusion; assay: Canine coronary thrombosis and fibrinolysis model, adjunctive treatment with rtPA (Example 7); assay type: in vivo, dog; details: for decrease of infarct area compared to clopidogrel treatment: percent of left ventricular area or of area-at-risk, 24 hours of reperfusion
Method: Thrombotic occlusion was induced by electrical injury to a coronary artery in dogs. […] Buccal mucosa bleeding times, PT, and aPTT were measured as indices of bleeding risk. After 24 hours of reperfusion, infarct size was determined by Evan's blue and triphenyltetrazolium chloride double staining. This protocol is illustrated in FIG. 7.

[8] = test system: F344 rats, lung graft; assay: Airway administration of apyrase agent after rat lung graft (Example 10); assay type: in vivo; details: for PaO2: saline about 200; for neutrophil accumulation in lung graft airways: saline control 12×10^2
Method: F344 rat lung grafts were flushed and cold preserved in Apyrase agent solution (0.2 mg/L) and engrafted into syngeneic F344 recipients.
At 5 minutes post-reperfusion 1 ml apyrase agent solution (1 mg/kg) (N=6) or an equivalent volume of saline carrier was administered to the trachea at approximately 5 minutes post-reperfusion (N=7). In additional group of lung graft recipients that were treated with apyrase agent intratracheally, apyrase agent was also administered intravenously at 7 minutes post-reperfusion at 0.66 mg/kg (N=9). Lung graft oxygenation, airway cellularity and airway granulocyte numbers were measured 4 hours post-reperfusion. We noted no gross pulmonary hematomas in any treatment groups.

[9] = test system: rabbits; details: rabbit, in vivo
Method: Rabbits were anesthetized with intramuscular ketamine/xylazine followed by inhaled isoflurane to maintain a stable level of surgical anesthesia for 5 h. Arterial blood pressure was monitored continuously and values for pressure and heart rate recorded at intervals after administration of apyrase agent and/or other antiplatelet agents. Venous blood samples were collected at baseline (before agents were given) for analysis of CBC and chemistry and samples were obtained serially for assay of prothrombin time (PT) and activated partial prothromboplastin time (aPTT).

B1: sol CD39L3 R67G T69R (protein)
chain: EVLPPGLKYGIVLDAGSSGTRVYVYQWPAEKENNTGVVSQTFKCSVKGSGISSYGNNPQDVPRAFEECMQKVKGQVPSHLHGSTPIHLGATAGMRLLRLQNETAANEVLESIQSYFKSQPFDFRGAQIISGQEEGVYGWITANYLMGNFLEKNLWHMWVHPHGVETTGALDLGGASTQISFVAGEKMDLNTSDIMQVSLYGYVYTLYTHSFQCYGRNEAEKKFLAMLLQNSPTKNHLTNPCYPRDYSISFTMGHVFDSLCTVDQRPESYNPNDVITFEGTGDPSLCKEKVASIFDFKACHDQETCSFDGVYQPKIKGPFVAFAGFYYTASALNLSGSFSLDTFNSSTWNFCSQNWSQLPLLLPKFDEVYARSYCFSANYIYHLFVNGYKFTEETWPQIHFEKEVGNSSIAWSLGYMLSLTNQIPAESPLIRLPIEPPV
modifications: glycosylated; synthetically constructed apyrase
[1]; apyrase agent 0.75 mg/kg (alone or plus r-tPA 10 mg/kg)
  Hemorrhage #/total animals: 0/4
[1]; apyrase agent 2.25 mg/kg (alone or plus r-tPA 10 mg/kg)
  Hemorrhage #/total animals: 0/4
[2]; 4 h after MCA occlusion
  Neurological deficits, median (interquartile range 25th to 75th), modified Bederson score: 3
[2]; 4 h after MCA occlusion, listed as Apyrase agent
  Neurological deficits, median (interquartile range 25th to 75th), modified Bederson score: 3 (2-3)
[2]; 8 h after MCA occlusion
  Neurological deficits, median (interquartile range 25th to 75th), modified Bederson score: improved
[2]; 8 h after MCA occlusion, listed as Apyrase agent
  Neurological deficits, median (interquartile range 25th to 75th), modified Bederson score: 2 (2-3)*^
[2]; 24 h after MCA occlusion, aspirin 1.25 mg/kg gastrically once a day from 3 days prior, apyrase 0.75 mg/kg IV at 2 h
  infarct volume, percentage of the total volume of the ipsilateral hemisphere (mean±SD): 17.89±2.35%
[2]; 24 h after MCA occlusion
  Neurological deficits, median (interquartile range 25th to 75th), modified Bederson score: significantly less severe than the control group
[2]; 24 h after MCA occlusion, listed as Apyrase agent
  Neurological deficits, median (interquartile range 25th to 75th), modified Bederson score: 1.5 (1-2)*
[2]; 24 h after ischemic injury
  extracellular hemoglobin content in brain homogenates (hemorrhagic transformation, Drabkin's reagents): 0.89±0.08
[2]; 24 h after ischemic injury, aspirin 1.25 mg/kg, apyrase 0.75 mg/kg IV at 2 h
  brain edema (brain swelling): 6.70±0.93%
[3]; 0.375 mg/kg IV at 3 h after MCAO (30 min before reperfusion), sacrifice at 8 h
  hemorrhage volume in the striatum: 4.8±2.0 mm^3
[3]; 0.375 mg/kg, 4.5 hour after MCAO
  neurological function: significantly improved neurological function
[4]
  half life in the circulation: approximately 24 h
[5]; 0.75 mg/kg IV single bolus, 10 mM ADP
  inhibition of ADP-induced platelet aggregation: more than 95%
[5]; 0.75 mg/kg IV, 6 h after dosing
  inhibition of ADP-induced platelet aggregation: 70%
[5]; apyrase agent 0.75 mg/kg IV
  time point after dosing at which strong effects were observed (onset of antiplatelet action): 5 min
[6]; 0.9-2.25 mg/kg IV
  persistence of platelet inhibition: at least 5 h
  time after IV injection to >95% inhibition: ≤ 5 min
[6]; 0.9-2.25 mg/kg single IV bolus with aspirin and heparin
  inhibition of ADP-induced aggregation: > 95%
[6]; 24 h after dosing
  platelet aggregation by 24 h: returned to normal
[7]; dog, in vivo
  buccal mucosa bleeding time: no detectable change
[7]; dogs, apyrase agent at 1 mg/kg
  reocclusion: completely prevented reocclusion
[7]; dogs, high dose (1 mg/kg IV)
  decrease of infarct area compared to clopidogrel treatment: 90%
[7]; dogs, low dose (0.25 mg/kg IV)
  decrease of infarct area compared to clopidogrel treatment: 80%
[8]; IT 1 mg/kg and IV 0.66 mg/kg, 4 hours post-reperfusion
  PaO2: ~320 mm Hg
[8]; airway administration, 4 hours post-reperfusion
  reduction of neutrophils in the airway: over 50%
[8]; airway alone
  neutrophil accumulation in lung graft airways: 5×10^2 neutrophils
[8]; airway and IV
  neutrophil accumulation in lung graft airways: 3×10^2 neutrophils
[8]; intratracheally (IT) 1 mg/kg, 4 hours post-reperfusion
  PaO2: about 300 mm Hg
[9]
  PT: Neither PT nor aPTT were changed significantly
  aPTT: Neither PT nor aPTT were changed significantly
  blood pressure: Neither blood pressure nor heart rate changed significantly
  heart rate: Neither blood pressure nor heart rate changed significantly
